Consider 1 substance from paper PMC8199477.

This assay has as its target urate oxidase from Deinococcus radiodurans (DrUox) (Deinococcus radiodurans R1). Description: SEC; Superdex 200 (10/300) GL, 20 mM Tris-HCl pH 8.0, 100 mM NaCl, 0.5 mL/min; size by interpolation against protein markers. (SEC sorts molecules by how far they enter the pores of the column.)

By stoichiometry N is commonly meant a count of units in the complex or per binding partner.

As for “urate oxidase from Deinococcus radiodurans (DrUox) (enzyme)”, the stoichiometry N was 4.
